Measured values taken from publication PMC6509256.

What was measured:
[1] = target: PcVps75ΔCM-SeMet (residues 1-223, E56 and N127 mutated to methionine, selenomethionine-labeled), cry (Pneumocystis carinii); assay: crystal structure
[2] = target: PcVps75ΔC (residues 1-223), crystallised as a dimer (Pneumocystis carinii); assay: crystal structure

Substance	stoichiometry N [1]	stoichiometry N [2]
PcVps75ΔCM-SeMet (residues 1-223, E56 and N127 mutated to methionine, selenomethionine-labeled), cry (domain or fragment)	4	
PcVps75ΔC (residues 1-223), crystallised as a dimer (domain or fragment)		2
